Values joined by “and” are separate entries in the source; they are usually repeats but may differ in a detail not shown here. Equal values may be shown once.

Test in all cases: BLI; 6×His-ZapC or its mutants (0.5 µM) loaded on Ni-NTA biosensors, untagged FtsZ or its variants in solution; Octet-Red96, 30°C, 1× Pol buffer (50 mM HEPES-NaOH pH 6.8, 50 mM KCl, 10 mM MgCl2); apparent Kd from the signal at the end of association against concentration, one-site fit; three repeats with mean (X) and SD
Holding throughout (settings): both partners purified
For orientation: BLI is a label-free optical method that tracks binding on a fibre tip over time.

One experiment has as its target T1, FtsZ A376T (untagged) (Escherichia coli, UniProt P0A9A6 1-383, A376T).
T1 construct: FtsZ of Escherichia coli with A376T (CTP); Derivative of pLY17 by site-directed mutagenesis; source: E. coli BL21(DE3), plasmid pLY22, purified (Ni-NTA); 6×His-SUMO tag removed with Ulp1; not shown: 6×His-SUMO, N-terminal, cleaved
T1 sequence (looked up): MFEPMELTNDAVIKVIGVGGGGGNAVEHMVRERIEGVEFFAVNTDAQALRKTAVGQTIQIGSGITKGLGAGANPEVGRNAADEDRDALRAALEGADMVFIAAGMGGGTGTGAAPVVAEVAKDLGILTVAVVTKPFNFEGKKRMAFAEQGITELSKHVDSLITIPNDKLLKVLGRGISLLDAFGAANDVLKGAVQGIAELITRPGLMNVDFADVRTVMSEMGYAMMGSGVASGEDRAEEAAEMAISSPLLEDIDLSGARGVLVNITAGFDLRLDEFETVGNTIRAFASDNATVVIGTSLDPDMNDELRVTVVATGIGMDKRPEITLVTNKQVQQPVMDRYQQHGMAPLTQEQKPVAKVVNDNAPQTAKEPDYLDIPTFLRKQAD

The target of another experiment is T2, FtsZ I323L (untagged) (Escherichia coli, UniProt P0A9A6 1-383, I323L).
T2 construct: FtsZ of Escherichia coli with I323L (CTL); Derivative of pLY17 by site-directed mutagenesis; source: E. coli BL21(DE3), plasmid pLY20, purified (Ni-NTA); 6×His-SUMO tag removed with Ulp1; not shown: 6×His-SUMO, N-terminal, cleaved
T2 sequence (looked up): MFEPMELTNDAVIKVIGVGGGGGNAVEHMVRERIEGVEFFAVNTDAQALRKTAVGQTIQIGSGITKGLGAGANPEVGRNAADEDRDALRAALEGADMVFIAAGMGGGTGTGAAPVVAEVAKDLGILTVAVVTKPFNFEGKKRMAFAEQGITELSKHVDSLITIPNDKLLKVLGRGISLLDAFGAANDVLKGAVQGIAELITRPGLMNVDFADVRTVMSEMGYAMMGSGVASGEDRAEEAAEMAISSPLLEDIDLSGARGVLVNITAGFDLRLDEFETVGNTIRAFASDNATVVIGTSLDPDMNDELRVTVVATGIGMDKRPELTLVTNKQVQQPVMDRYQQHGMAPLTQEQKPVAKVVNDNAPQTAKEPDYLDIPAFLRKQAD

A further experiment deals with T3, FtsZ 1-330 (untagged) (Escherichia coli, UniProt P0A9A6 1-330).
T3 construct: FtsZ of Escherichia coli, residues 1-330; lacks most of the CTL and the CTP; Primers BsaI-out-F and 330XbaI-out-R; forward primer starts at codon 2; source: E. coli BL21(DE3), plasmid pLY340, purified (Ni-NTA); 6×His-SUMO tag removed with Ulp1; not shown: 6×His-SUMO, N-terminal, cleaved
T3 sequence (looked up): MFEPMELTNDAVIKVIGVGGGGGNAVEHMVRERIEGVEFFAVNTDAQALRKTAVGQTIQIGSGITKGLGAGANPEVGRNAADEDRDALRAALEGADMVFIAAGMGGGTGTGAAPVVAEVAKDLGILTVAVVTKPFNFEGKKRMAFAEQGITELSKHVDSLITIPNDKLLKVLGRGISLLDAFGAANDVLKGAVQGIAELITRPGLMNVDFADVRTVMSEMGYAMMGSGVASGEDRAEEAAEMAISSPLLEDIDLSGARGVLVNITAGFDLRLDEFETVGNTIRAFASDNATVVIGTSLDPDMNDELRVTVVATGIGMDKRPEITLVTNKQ

The target of experiment [1] is T4, FtsZ (untagged, wild type) (Escherichia coli, UniProt P0A9A6 1-383).
T4 construct: also called wild-type FtsZ; source: E. coli BL21(DE3), plasmid pLY17, purified (Ni-NTA); 6×His-SUMO tag removed with Ulp1; not shown: 6×His-SUMO, N-terminal, cleaved
T4 sequence (looked up): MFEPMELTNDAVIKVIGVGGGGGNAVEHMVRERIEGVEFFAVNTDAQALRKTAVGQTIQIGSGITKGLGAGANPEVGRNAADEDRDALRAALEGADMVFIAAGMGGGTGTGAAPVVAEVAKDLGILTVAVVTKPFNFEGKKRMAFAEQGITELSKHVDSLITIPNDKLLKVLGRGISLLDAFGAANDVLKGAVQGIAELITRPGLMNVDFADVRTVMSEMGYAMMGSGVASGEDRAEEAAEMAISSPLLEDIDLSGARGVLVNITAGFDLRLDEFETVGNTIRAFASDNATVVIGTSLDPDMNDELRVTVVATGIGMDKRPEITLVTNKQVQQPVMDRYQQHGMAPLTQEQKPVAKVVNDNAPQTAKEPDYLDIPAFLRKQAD

The target of experiment [2] is T4, FtsZ (untagged, wild type). This is another data set of the same source.

B1: 6×His-ZapC (natural protein)
chain: not shown
notes: ZapC, FtsZ-associated protein of Escherichia coli; Construction of pSD323 is not described; also called His-tagged ZapC; source: E. coli, plasmid pSD323 (pQE80, Plac::6×His-ZapC), purified (Ni-NTA); not shown: His6, N-terminal, kept
For the molecule B1, the Kd in the experiment with FtsZ A376T (untagged) is 859 nM and 778 nM and 821 nM and 819 nM; in the experiment with FtsZ I323L (untagged) it was 647 nM and 635 nM and 620 nM and 579 nM; with FtsZ 1-330 (untagged), 1610 nM and 1810 nM and 1590 nM and 1670 nM; in experiment [1], 377 nM and 395 nM and 488 nM and 420 nM; in experiment [2], 377 nM and 395 nM and 364 nM and 379 nM.

The record behind these values is article PMC12607630, “ZapC crosslinks FtsZ filaments through a dual-binding mechanism modulated by the intrinsically disordered linker of FtsZ in Escherichia coli” (mBio, 2025).
